Measured values reported in the supplement of paper PMC10126150.
± gives the standard deviation of the averaged measurements.

Test system: ATP
Experiment: switch fluorescence ratio, 500 uM ATP over buffer (Cy3 cluster intensity, sum of 5 cycles each) (fold (ratio)); higher = stronger signal-on switching upon ATP binding; sequences stand for … in TCGTCGGCAGCGTCAGATGTGTATAAGAGACAGTTTTTTTTTTTTTTTTTTTTTTTTT…TC
Conditions: aptamer strand: ATP DNA aptamer (quencher-CACCTGGGGGAGTATTGCGGAGGAAGG + anchor), 100 nM annealed; ATP concentration: 500 uM
Outline: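 Per cluster, summed Cy3 intensity from the target cycles was divided by that from the buffer cycles to give the fluorescence ratio, then averaged per switch-domain sequence. Clusters outside 100-1000 RFU were excluded. The Cy3-labelled switching-strand clusters, on a modified Illumina MiSeq flow-cell, were annealed to 100 nM quencher-labelled ATP aptamer and imaged in selection buffer, then after 15 min with 500 uM ATP at 22 °C, for five cycles with NaOH stripping and re-annealing between them.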
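Further: ATP exposure 15 min at 22 °C before imaging.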

Sequence	switch fluorescence ratio
AGCGAGGGAG	1.005 ± 0.0059
AGCGAGGTCG	1 ± 0.031
AGCGCAAAAT	1.02 ± 0.069
AGCGCAGTTT	0.999 ± 0.021
AGCGCATTGT	1.02 ± 0.031
AGCGCGATTC	1.99 ± 0.13
AGCGCTGGGA	1 ± 0.05
AGCGGAAGGC	1.04 ± 0.024
AGCGGAGGGG	1.04 ± 0.033
AGCGGGGCGC	1.01 ± 0.069
AGCGGGGGTG	1.02 ± 0.018
AGCGGGTAGG	1.02 ± 0.013
AGCGGGTTG	1.02 ± 0.017
AGCGGTCCTC	1.09 ± 0.039
AGCGGTGGGA	1.02 ± 0.032
AGCGGTTTCC	1.029 ± 0.0093
AGCGTCTCCG	1.024 ± 0.006
AGCGTCTGTG	0.962 ± 0.036
AGCGTTAGAG	1.09 ± 0.017
AGCGTTCTTA	1.02 ± 0.041
AGCTACCTTC	1.42 ± 0.041
AGCTAGAGTC	1.03 ± 0.028
AGCTAGCCTT	1.02 ± 0.028
AGCTAGGGGG	0.989 ± 0.022
AGCTATAGTA	0.991 ± 0.01

Sequence	switch fluorescence ratio
AGCTATGGGA	1.04 ± 0.015
AGCTATGTTA	1.03 ± 0.0045
AGCTATTCCG	1.01 ± 0.013
AGCTCCGACA	1.63 ± 0.058
AGCTCGCGTC	0.981 ± 0.021
AGCTCGGCGC	1.02 ± 0.064
AGCTGAACGG	1.05 ± 0.025
AGCTGAGTAG	0.997 ± 0.035
AGCTGAGTCT	1.02 ± 0.034
AGCTGATAGG	0.991 ± 0.032
AGCTGATGG	1.0343 ± 0.00071
AGCTGCTTGC	1.04 ± 0.066
AGCTGGTGGA	1.02 ± 0.024
AGCTTATTGC	0.977 ± 0.015
AGCTTGGGTT	0.98 ± 0.018
AGCTTGTGAA	1.01 ± 0.011
AGCTTTAAAA	0.981 ± 0.025
AGCTTTGGGA	0.995 ± 0.085
AGCTTTTTTA	1.02 ± 0.015
AGGAAAACAG	1.026 ± 0.0032
AGGAAAGTAG	0.9719 ± 0.0097
AGGAAGACAA	1.03 ± 0.028
AGGAAGCGGG	1.0224 ± 0.00031
AGGAAGTCTT	0.941 ± 0.021
AGGAAGTTGC	0.9883 ± 0.0085
